The source of these data is patent WO2000075333A1 (dated 2000).

The test concerns the target T1, CD20 (human, UniProt P11836 1-297).
T1 construct: whole, on cells; also called CD20 antigen; CD20-positive Ramos cell line
T1 sequence (looked up): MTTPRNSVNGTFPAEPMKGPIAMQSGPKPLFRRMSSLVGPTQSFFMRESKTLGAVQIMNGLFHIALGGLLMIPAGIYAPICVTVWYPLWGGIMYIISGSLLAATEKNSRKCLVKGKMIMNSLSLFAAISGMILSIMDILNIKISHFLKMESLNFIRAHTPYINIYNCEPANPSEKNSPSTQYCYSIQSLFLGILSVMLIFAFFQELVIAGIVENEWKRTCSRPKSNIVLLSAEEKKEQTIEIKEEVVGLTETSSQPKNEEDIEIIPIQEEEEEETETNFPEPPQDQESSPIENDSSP
Description: saturation binding of radiolabeled mAb to Ramos cells (10^7 cells), nonlinear regression, concentrations adjusted for immunoreactivity.

B1: B9E9 mAb (antibody, V domains shown)
VH: QVQLVQSGAELVKPGASVKMSCKASGYTFTSYNMHWVKQTPGQGLEWIGAIYPGNGDTSYNQKFKGKATLTADKSSSTAYMQLSSLTSEDSAVYYCARAQLRPNYWYFDVWGAGTTVTVSS
VL: DIVLSQSPAILSASPGEKVTMTCRASSSVSYMHWYQQKPGSSPKPWIYATSNLASGVPARFSGSGSGTSYSLTISRVEAEDAATYYCQQWISNPPTFGAGTKLELK
In the case of B1, the Kd amounted to 9.75 nM.
